This note sets out measurements from patent publication US20140120625.

The series addresses FLPe (thermostable FLP variant) (UniProt P03870). The series can be described thus: cell_activity.
Sequence of UniProt P03870 (P03870 whole entry, change not shown): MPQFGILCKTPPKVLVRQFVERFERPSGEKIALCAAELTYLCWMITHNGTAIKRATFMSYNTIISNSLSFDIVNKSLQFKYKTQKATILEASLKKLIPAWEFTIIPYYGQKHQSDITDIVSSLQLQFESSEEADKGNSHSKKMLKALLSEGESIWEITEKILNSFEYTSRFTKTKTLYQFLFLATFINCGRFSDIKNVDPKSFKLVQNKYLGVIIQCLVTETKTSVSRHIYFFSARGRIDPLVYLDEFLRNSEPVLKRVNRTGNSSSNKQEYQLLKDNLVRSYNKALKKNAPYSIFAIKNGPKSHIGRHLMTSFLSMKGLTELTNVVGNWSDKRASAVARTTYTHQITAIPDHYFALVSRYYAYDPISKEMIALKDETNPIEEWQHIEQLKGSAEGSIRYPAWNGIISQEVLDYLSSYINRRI

Take “TTGAAGTTCCTATTCCGAGTTCCTATTCTTCAAATAGTATAGGAACTTCA (double strand) [FRT-F3]”: under “same assay, paired with FRT-F”, the binding signal was found to be 3 fold vs FLP.
Turning to “TTGAAGTTCCTATTCCGAGTTCCTATTCTCTAGAAAGTATAGGAACTTC (double strand) [FRT-F]”, under “simultaneous four-locus gene swapping frequency in A. niger M1146, FRT-F/FRT-F3 pair”, the binding signal is 3 fold vs FLP.
